According to patent US20180155451A1 (published 2018):

T1: FcγRIIb extracellular domain with C-terminal His tag (human, UniProt P31994 43-217)
T1 construct: extracellular domain; Soluble receptor expressed in FreeStyle293 cells; analyte in Biacore; also called FcgRIIb; 2b; not shown: His tag at the C terminus
T1 sequence (looked up): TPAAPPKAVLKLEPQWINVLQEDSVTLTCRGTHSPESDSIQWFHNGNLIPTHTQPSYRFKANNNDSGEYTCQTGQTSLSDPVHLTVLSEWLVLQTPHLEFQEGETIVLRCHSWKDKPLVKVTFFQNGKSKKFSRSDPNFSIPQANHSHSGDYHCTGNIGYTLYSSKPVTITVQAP

T2: FcγRIIa H (FcγRIIa type H, His at position 131), extracellular domain with C-terminal His tag (human, UniProt P12318 34-217)
T2 construct: extracellular domain; Expressed in FreeStyle293 cells; analyte in the Biacore assay; also called FcgRIIa H; 2aH; not shown: His tag at the C terminus
T2 sequence (looked up): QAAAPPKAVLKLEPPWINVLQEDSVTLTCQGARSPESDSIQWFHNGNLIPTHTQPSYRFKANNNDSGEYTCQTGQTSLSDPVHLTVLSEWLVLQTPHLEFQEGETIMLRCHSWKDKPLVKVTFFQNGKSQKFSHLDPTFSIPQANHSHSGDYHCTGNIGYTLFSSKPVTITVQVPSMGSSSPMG

T3: FcγRIIb, extracellular domain with C-terminal His tag (human, UniProt P31994 43-217)
T3 construct: extracellular domain; Expressed in FreeStyle293 cells; analyte in the Biacore assay; also called FcgRIIb; 2b; not shown: His tag at the C terminus
T3 sequence (looked up): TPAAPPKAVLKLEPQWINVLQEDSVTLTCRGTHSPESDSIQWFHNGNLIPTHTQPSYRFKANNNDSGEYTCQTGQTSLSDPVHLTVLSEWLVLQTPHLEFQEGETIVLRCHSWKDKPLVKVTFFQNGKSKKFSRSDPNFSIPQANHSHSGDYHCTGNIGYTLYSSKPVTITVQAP


How the values were obtained:
[1] = molecular target: T1, FcγRIIb extracellular domain with …; assay: SPR (Biacore), antibody captured on antigen peptide chip, FcγR as analyte; binding relative to GpH7-A5/GpH7-B3/GpL16-k0 = 100
[2] = molecular target: T4, FcγRIa extracellular domain with C-terminal His tag (human, UniProt P12314 16-292); assay: as above
T4 construct: extracellular domain; Soluble receptor expressed in FreeStyle293 cells; analyte in Biacore; also called FcgRI; FcgRIa; not shown: His tag at the C terminus
T4 sequence (P12314 16-292): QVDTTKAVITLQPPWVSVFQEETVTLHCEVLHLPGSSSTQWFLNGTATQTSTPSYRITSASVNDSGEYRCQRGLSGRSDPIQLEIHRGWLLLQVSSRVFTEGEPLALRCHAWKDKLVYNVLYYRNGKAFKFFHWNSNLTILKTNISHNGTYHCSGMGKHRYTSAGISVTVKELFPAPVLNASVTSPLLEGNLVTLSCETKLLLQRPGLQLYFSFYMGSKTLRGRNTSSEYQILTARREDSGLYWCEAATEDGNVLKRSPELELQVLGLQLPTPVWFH

[3] = molecular target: T4, FcγRIa extracellular domain with …; assay: SPR (Biacore); He/Con_1a divided by He/Con_2b (FcγRIIb)
Outline: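 Measurements were made at 25 °C with HBS-EP+ as running buffer. Each antibody sat on a chip bearing its antigen peptide, amine-coupled or streptavidin-bound, while FcγR was passed over; 10 mM glycine-HCl, pH 1.5 removed captured antibody.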

[4] = molecular target: T2, FcγRIIa H (FcγRIIa type H, His at …); assay: SPR Biacore, captured antibody, FcgR analyte; GpH7-A5/GpH7-B3/GpL16-k0 = 100
[5] = molecular target: T3, FcγRIIb, extracellular domain with …; assay: as above
[6] = molecular target: T2, FcγRIIa H (FcγRIIa type H, His at …); assay: SPR Biacore; He/Con_2aH divided by He/Con_2b (reference: FcgRIIb)

Binder	He/Con_2b (IIb binding) [1]	He/Con_1a (Ia binding) [2]	He_1a/2b (Ia/IIb) [3]	He/Con_2aH [4]	He/Con_2b [5]	He_2aH/2b (IIaH/IIb) [6]
GpH7-A5/GpH7-B3 variant P329_20W/GpL16-k0 (antibody, human IgG1, kappa, He Ab: heterodimerized anti-glypican-3 IgG1, substitution in one H chain only; also called He Ab P329W) heavy 1: not shown heavy 2: not shown light: DIVMTQSPLSLPVTPGEPASISCQASESLVHSNRNTYLHWYLQKPGQSPQLLIYKVSNRFSGVPDRFSGSGSGTDFTLKISRVEAEDVGVYYCSQNTHVPPTFGQGTKVEIERTVAAPSVFIFPPSDEQLKSGTASVVCLLNNFYPREAKVQWKVDNALQSGNSQESVTEQDSKDSTYSLSSTLTLSKADYEKHKVYACEVTHQGLSSPVTKSFNRGEC	45.1 % of control (control = 100)	96.9 % of control (control = 100)	2.15			
GpH7-A5/GpH7-B3 variant P331_01G/GpL16-k0 (antibody, human IgG1, kappa, He Ab: heterodimerized anti-glypican-3 IgG1, substitution in one H chain only; also called He Ab P331G) heavy 1: not shown heavy 2: not shown light: DIVMTQSPLSLPVTPGEPASISCQASESLVHSNRNTYLHWYLQKPGQSPQLLIYKVSNRFSGVPDRFSGSGSGTDFTLKISRVEAEDVGVYYCSQNTHVPPTFGQGTKVEIERTVAAPSVFIFPPSDEQLKSGTASVVCLLNNFYPREAKVQWKVDNALQSGNSQESVTEQDSKDSTYSLSSTLTLSKADYEKHKVYACEVTHQGLSSPVTKSFNRGEC	45.4 % of control (control = 100)	85.3 % of control (control = 100)	1.88			
GpH7-A5/GpH7-B3 variant T335_11K/GpL16-k0 (antibody, human IgG1, kappa, He Ab: heterodimerized anti-glypican-3 IgG1, substitution in one H chain only; also called He Ab T335K) heavy 1: not shown heavy 2: not shown light: DIVMTQSPLSLPVTPGEPASISCQASESLVHSNRNTYLHWYLQKPGQSPQLLIYKVSNRFSGVPDRFSGSGSGTDFTLKISRVEAEDVGVYYCSQNTHVPPTFGQGTKVEIERTVAAPSVFIFPPSDEQLKSGTASVVCLLNNFYPREAKVQWKVDNALQSGNSQESVTEQDSKDSTYSLSSTLTLSKADYEKHKVYACEVTHQGLSSPVTKSFNRGEC	91 % of control (control = 100)	111 % of control (control = 100)	1.22			
GpH7-A5/GpH7-B3 variant T335_12R/GpL16-k0 (antibody, human IgG1, kappa, He Ab: heterodimerized anti-glypican-3 IgG1, substitution in one H chain only; also called He Ab T335R) heavy 1: not shown heavy 2: not shown light: DIVMTQSPLSLPVTPGEPASISCQASESLVHSNRNTYLHWYLQKPGQSPQLLIYKVSNRFSGVPDRFSGSGSGTDFTLKISRVEAEDVGVYYCSQNTHVPPTFGQGTKVEIERTVAAPSVFIFPPSDEQLKSGTASVVCLLNNFYPREAKVQWKVDNALQSGNSQESVTEQDSKDSTYSLSSTLTLSKADYEKHKVYACEVTHQGLSSPVTKSFNRGEC	91.9 % of control (control = 100)	113 % of control (control = 100)	1.23			
GpH7-A5/GpH7-B3 variant P329_01G/GpL16-k0 (antibody, human IgG1, kappa, He Ab; IgG1; mutation in one H chain only; also called He Ab) heavy 1: not shown heavy 2: not shown light: DIVMTQSPLSLPVTPGEPASISCQASESLVHSNRNTYLHWYLQKPGQSPQLLIYKVSNRFSGVPDRFSGSGSGTDFTLKISRVEAEDVGVYYCSQNTHVPPTFGQGTKVEIERTVAAPSVFIFPPSDEQLKSGTASVVCLLNNFYPREAKVQWKVDNALQSGNSQESVTEQDSKDSTYSLSSTLTLSKADYEKHKVYACEVTHQGLSSPVTKSFNRGEC				54.9 % of HeCon Ab	41.7 % of HeCon Ab	1.32
GpH7-A5/GpH7-B3 variant A327_04F/GpL16-k0 (antibody, human IgG1, kappa, He Ab; IgG1; mutation in one H chain only; also called He Ab) heavy 1: not shown heavy 2: not shown light: DIVMTQSPLSLPVTPGEPASISCQASESLVHSNRNTYLHWYLQKPGQSPQLLIYKVSNRFSGVPDRFSGSGSGTDFTLKISRVEAEDVGVYYCSQNTHVPPTFGQGTKVEIERTVAAPSVFIFPPSDEQLKSGTASVVCLLNNFYPREAKVQWKVDNALQSGNSQESVTEQDSKDSTYSLSSTLTLSKADYEKHKVYACEVTHQGLSSPVTKSFNRGEC				84.4 % of HeCon Ab	63.7 % of HeCon Ab	1.32
GpH7-A5/GpH7-B3 variant A327_06M/GpL16-k0 (antibody, human IgG1, kappa, He Ab; IgG1; mutation in one H chain only; also called He Ab) heavy 1: not shown heavy 2: not shown light: DIVMTQSPLSLPVTPGEPASISCQASESLVHSNRNTYLHWYLQKPGQSPQLLIYKVSNRFSGVPDRFSGSGSGTDFTLKISRVEAEDVGVYYCSQNTHVPPTFGQGTKVEIERTVAAPSVFIFPPSDEQLKSGTASVVCLLNNFYPREAKVQWKVDNALQSGNSQESVTEQDSKDSTYSLSSTLTLSKADYEKHKVYACEVTHQGLSSPVTKSFNRGEC				75.5 % of HeCon Ab	59.5 % of HeCon Ab	1.27
GpH7-A5/GpH7-B3 variant A327_19Q/GpL16-k0 (antibody, human IgG1, kappa, He Ab; IgG1; mutation in one H chain only; also called He Ab) heavy 1: not shown heavy 2: not shown light: DIVMTQSPLSLPVTPGEPASISCQASESLVHSNRNTYLHWYLQKPGQSPQLLIYKVSNRFSGVPDRFSGSGSGTDFTLKISRVEAEDVGVYYCSQNTHVPPTFGQGTKVEIERTVAAPSVFIFPPSDEQLKSGTASVVCLLNNFYPREAKVQWKVDNALQSGNSQESVTEQDSKDSTYSLSSTLTLSKADYEKHKVYACEVTHQGLSSPVTKSFNRGEC				67.3 % of HeCon Ab	54.2 % of HeCon Ab	1.24
